# B1: R217A variant of human ornithine δ-aminotransferase (enzyme, UniProt P04181 26-439, looked up)
# chain: TSVATKKTVQGPPTSDDIFEREYKYGAHNYHPLPVALERGKGIYLWDVEGRKYFDFLSSYSAVNQGHCHPKIVNALKSQVDKLTLTSRAFYNNVLGEYEEYITKLFNYHKVLPMNTGVEAGETACKLARKWGYTVKGIQKYKAKIVFAAGNFWGRTLSAISSSTDPTSYDGFGPFMPGFDIIPYNDLPALEAALQDPNVAAFMVEPIQGEAGVVVPDPGYLMGVRELCTRHQVLFIADEIQTGLARTGRWLAVDYENVRPDIVLLGKALSGGLYPVSAVLCDDDIMLTIKPGEHGSTYGGNPLGCRVAIAALEVLEEENLAENADKLGIILRNELMKLPSDVVTAVRGKGLLNAIVIKETKDWDAWKVCLRLRDNGLLAKPTHGDIIRFAPPLVIKEDELRESIEIINKTILSF
# notes: the protein as purified is reconstituted with PLP, so probably the holo-form (PLP on Lys292); A start Met from the NdeI site probably precedes T26; also called R217A mutant; dimeric variant R217A; source: E. coli BL21(DE3)pLysS, purified (DEAE Sepharose, Superdex 200)
# Biological target: the molecule itself
# Assay: dynamic light scattering; Zetasizer Nano S, 6 μM enzyme, 50 mM Hepes pH 7.4, 0.5 M NaCl, 25 °C; also with L-Orn and α-KG at saturating concentrations
protein,measurement,value
B1,stoichiometry N,2
